Measurements reported in the RNAGym collection of RNA variant scans (doi:10.7554/elife.80360).

B1: Hairpin Ribozyme (parent)
chain: GUCCUCUUUCACGUGCGCGUGAAAGAGAGAAGUGAACCAGAGAAACACACGUUGUGGUAUAUUACCUGGUA

Variants of: B1
Test: self-cleavage, relative activity (ratio to wild type); higher = more cleavage; co-transcriptional

First: GUCCUCUUUCACGUGCGCGUUAAAGAAAGAAGUGAACCAGAGAAACACACGUUGUGGUAUAUUACCUGGUA [G21U G27A]
Second: GUCCUCUUUCACGUGCGCGUUAAAGAGAGAAGUGAACCAGAGAAACACACGUUGUGGUAUAUUACCUGGUC [G21U A71C]
The self-cleavage of the first is lower: 0.25 for the first, 1.2 for the second.

Compared with GUCCUCUUUCACGUGCGCGUUAAAGAGAGAAGUGAACCAGAGAAACACACGUUGUGGUAUAUUACCUGGUU [G21U A71U], GUCCUCUUUCACGUGCGCGUUAAACAGAGAAGUGAACCAGAGAAACACACGUUGUGGUAUAUUACCUGGUA [G21U G25C] is lower in self-cleavage: 0.754 for the first, 0.342 for the second.

First: GUCCUCUUUCACGUGCGCGUUAAAUAGAGAAGUGAACCAGAGAAACACACGUUGUGGUAUAUUACCUGGUA [G21U G25U]
Second: GUCCUCUUUCACGUGCGCGUUAAAGAGAGAAGUGAACCAGAGAAACACACGUUGUGGUAUAUUACAUGGUA [G21U C66A]
The self-cleavage of the first is higher: 0.461 for the first, 0.236 for the second.

Going from GUCCUCUUUCACGUGCGCGUUAAAGAGAGAAGUGAACCAGAGAAACACACGUUGUGGUAUAUUACGUGGUA [G21U C66G] to GUCCUCUUUCACGUGCGCGUUAAAGAGAGAAGUGAACCAGAGAAACACACGUUGUGCUAUAUUACCUGGUA [G21U G57C], the self-cleavage rises from 0.123 to 0.176.

Compared with GUCCUCUUUCACGUGCGCGUUAAAGAGAUAAGUGAACCAGAGAAACACACGUUGUGGUAUAUUACCUGGUA [G21U G29U], GUCCUCUUUCACGUGCGCGUUAAAGAGAAAAGUGAACCAGAGAAACACACGUUGUGGUAUAUUACCUGGUA [G21U G29A] is higher in self-cleavage: 0.106 for the first, 0.142 for the second.

Compared with GUCCUCUUUCACGUGCGCGUUAAAGAGAGAAGUGAACCAGAGAAACACACGUUGUAGUAUAUUACCUGGUA [G21U G56A], GUCCUCUUUCACGUGCGCGUUAAAGAGAGAAGUGAACCAGAGAAACACACGUUGUUGUAUAUUACCUGGUA [G21U G56U] is lower in self-cleavage: 0.178 for the first, 0.147 for the second.

Going from GUCCUCUUUCACGUGCGCGUUAAAGAGAGAAGUGAACCAGAGAAACACACAUUGUGGUAUAUUACCUGGUA [G21U G51A] to GUCCUCUUUCACGUGCGCGUUAAAGAGAGAAGUGAACCAGAGAAACACACGUUGUGGUAUGUUACCUGGUA [G21U A61G], the self-cleavage falls from 0.822 to 0.245.

Compared with GUCCUCUUUCACGUGCGCGUUAAAGAGAGAAGUGAACCAGACAAACACACGUUGUGGUAUAUUACCUGGUA [G21U G42C], GUCCUCUUUCACGUGCGCGUUAAAGAGAGAAGUGAACCAGAGCAACACACGUUGUGGUAUAUUACCUGGUA [G21U A43C] is lower in self-cleavage: 0.36 for the first, 0.146 for the second.

First: GUCCUCUUUCACGUGCGCGUUAAAGAGAGAAGAGAACCAGAGAAACACACGUUGUGGUAUAUUACCUGGUA [G21U U33A]
Second: GUCCUCUUUCACGUGCGCGUUAAAGAGAGAAGUGAAGCAGAGAAACACACGUUGUGGUAUAUUACCUGGUA [G21U C37G]
The self-cleavage of the first is lower: 0.242 for the first, 0.32 for the second.

Going from GUCCUCUUUCACGUGCGCGUUAAAGAGAGAAGUGAACCAGAGAAACACACGUUGUGGUAUAUUAGCUGGUA [G21U C65G] to GUCCUCUUUCACGUGCGCGUUAAAGAGAGAAGUGAACCAGAGAAACACACGUUGUGGUAUAUUAUCUGGUA [G21U C65U], the self-cleavage falls from 0.257 to 0.234.

Going from GUCCUCUUUCACGUGCGCGUUAAAGAGAGAAGUGAACCAGAGAAGCACACGUUGUGGUAUAUUACCUGGUA [G21U A45G] to GUCCUCUUUCACGUGCGCGUUAAAGAGAGAAGUGAACCAGAGAACCACACGUUGUGGUAUAUUACCUGGUA [G21U A45C], the self-cleavage falls from 0.26 to 0.218.

First: GUCCUCUUUCACGUGCGCGUUAAAGAGAGAAGUGAACCAGAGAAUCACACGUUGUGGUAUAUUACCUGGUA [G21U A45U]
Second: GUCCUCUUUCACGUGCGCGUUAAAGAGAGAAGUGAACCAGAGAAACACACGUUCUGGUAUAUUACCUGGUA [G21U G54C]
The self-cleavage of the first is lower: 0.218 for the first, 0.438 for the second.

First: GUCCUCUUUCACGUGCGCGUUAAAGAGAGAAGUGAACCAGAGAAACACACGUUAUGGUAUAUUACCUGGUA [G21U G54A]
Second: GUCCUCUUUCACGUGCGCGUUAAAGAGAGAAGUGAACCAGAGAAACACACGUUUUGGUAUAUUACCUGGUA [G21U G54U]
The self-cleavage of the first is higher: 0.582 for the first, 0.329 for the second.

Going from GUCCUCUUUCACGUGCGCGUUAAAGAGAGAAGUGAACCAGAGAAACAGACGUUGUGGUAUAUUACCUGGUA [G21U C48G] to GUCCUCUUUCACGUGCGCGUUAAAGAGAGAAGUGAACCAGAGAAACAUACGUUGUGGUAUAUUACCUGGUA [G21U C48U], the self-cleavage falls from 0.132 to 0.101.

Compared with GUCCUCUUUCACGUGCGCGUUAAAGAGAGAAGUGAACCAGAGAAACAAACGUUGUGGUAUAUUACCUGGUA [G21U C48A], GUCCUCUUUCACGUGCGCGUUAAAGAGAGAAGUGAACCAGAGAAACACACGUUGUGGUAUAUUACCUCGUA [G21U G68C] is higher in self-cleavage: 0.122 for the first, 0.187 for the second.

Going from GUCCUCUUUCACGUGCGCGUUAAAGAGAGAAGUGAACCAGAGAAACCCACGUUGUGGUAUAUUACCUGGUA [G21U A47C] to GUCCUCUUUCACGUGCGCGUUAAAGAGAGAAGUGAACCAGGGAAACACACGUUGUGGUAUAUUACCUGGUA [G21U A41G], the self-cleavage rises from 0.282 to 0.772.

First: GUCCUCUUUCACGUGCGCGUUAAAGAGAGAAGUGAACCACAGAAACACACGUUGUGGUAUAUUACCUGGUA [G21U G40C]
Second: GUCCUCUUUCACGUGCGCGUUAAAGAGAGAAGUGAACCAGAGAAACACUCGUUGUGGUAUAUUACCUGGUA [G21U A49U]
The self-cleavage of the first is lower: 0.122 for the first, 0.189 for the second.

Going from GUCCUCUUUCACGUGCGCGUUAAAGAGAGAAGUCAACCAGAGAAACACACGUUGUGGUAUAUUACCUGGUA [G21U G34C] to GUCCUCUUUCACGUGCGCGUUAAAGAGAGAAAUGAACCAGAGAAACACACGUUGUGGUAUAUUACCUGGUA [G21U G32A], the self-cleavage falls from 1.08 to 0.18.

Compared with GUCCUCUUUCACGUGCGCGUUAAAGAGAGAACUGAACCAGAGAAACACACGUUGUGGUAUAUUACCUGGUA [G21U G32C], GUCCUCUUUCACGUGCGCGUUAAAGAGAGAAGUGAACCAGAGAAAGACACGUUGUGGUAUAUUACCUGGUA [G21U C46G] is lower in self-cleavage: 0.145 for the first, 0.0824 for the second.
